The values below come from article PMC8584237, “Helicobacter pylori Neutrophil-Activating Protein Directly Interacts with and Activates Toll-like Receptor 2 to Induce the Secretion of Interleukin-8 from Neutrophils and ATRA-Induced Differentiated HL-60 Cells” (International Journal of Molecular Sciences, 2021).

For this assay, the target named is T1, Recombinant human TLR2 protein Glu21-Leu590, with a C-terminal 10-His tag (human, UniProt O60603 21-590).
T1 construct: Human Toll-like receptor 2, residues Glu21-Leu590; In the functional rows the TLR2 is the endogenous receptor on neutrophils or ATRA-differentiated HL-60 cells, not this soluble construct; also called TLR2-10xHis; Toll-like receptor 2; source: bought: R&D Systems (Cat. # 2616-TR-050); not shown: His10, C-terminal, kept
Kind of assay: ELISA; Competitive ELISA: 0.625 μg TLR2-10xHis in 100 µL PBS-T pre-incubated with 0.78125-50 μg Pam3CSK4 or BSA (control), then added to wells coated with 0.05 µg HP-NAP, room temperature 2 h; detected with anti-6x His tag antibody. Particulars: both partners purified. Background: ELISA stands for enzyme-linked immunosorbent assay.

T1 sequence (O60603 21-590): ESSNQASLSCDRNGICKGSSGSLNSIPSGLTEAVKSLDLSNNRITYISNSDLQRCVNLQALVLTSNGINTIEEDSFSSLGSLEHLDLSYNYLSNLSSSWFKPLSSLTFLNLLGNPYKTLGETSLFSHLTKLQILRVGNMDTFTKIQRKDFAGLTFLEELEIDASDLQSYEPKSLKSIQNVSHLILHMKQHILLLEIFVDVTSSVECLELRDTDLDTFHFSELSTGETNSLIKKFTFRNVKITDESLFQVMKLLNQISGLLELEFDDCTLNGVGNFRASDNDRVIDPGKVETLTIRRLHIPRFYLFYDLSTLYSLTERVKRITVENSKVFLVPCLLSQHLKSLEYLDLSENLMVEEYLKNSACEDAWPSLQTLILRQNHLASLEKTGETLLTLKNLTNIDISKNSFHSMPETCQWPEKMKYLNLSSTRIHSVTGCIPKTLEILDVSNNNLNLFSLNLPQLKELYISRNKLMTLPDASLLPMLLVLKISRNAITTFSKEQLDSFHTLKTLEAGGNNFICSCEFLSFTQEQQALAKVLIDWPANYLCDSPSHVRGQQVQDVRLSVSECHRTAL

B1: Helicobacter pylori neutrophil-activating protein (natural protein)
chain: MKTFEILKHLQADAIVLFMKVHNFHWNVKGTDFFNVHKATEEIYEEFADMFDDLAERIVQLGHHPLVTLSEAIKLTRVKEETKTSFHSKDIFKEILEDYKYLEKEFKELSNTAEKEGDKVTVTYADDQLAKLQKSIWMLQAHLA
notes: also called HP-NAP; NAP; source: E. coli BL21(DE3) carrying pET42a-NAP, purified (two gel-filtration steps: Sephacryl S-300, Superdex 200; endotoxin removed); copies: 12
As to B1, the binding result is “binds”.
